Laboratory results taken from the RNAGym collection of RNA variant scans (doi:10.1073/pnas.2313332121).
Fewer inactive variants are shown than the library holds.

B1: TPR 5TU (parent)
chain: GGAUCUUCUCGAUCUAACAAAAAAGACAAAUCUGCCACAAAGCUUGAGAGCAUCUUCGGAUGCAGAGGCGGCAGCCUUCGGUGGCGCGAUAGCGCCAACGUUCUCAACUAUGACACGCAAAACGCGUGCUCCGUUGAAUGGAGUUUAUCAUG

Variants of: B1
Experiment: polymerase ribozyme fitness, log enrichment relative to wild type (log ratio); higher = more active; in vitro selection for triplet polymerase activity
How it was run: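 Streptavidin-bead capture of gel-excised extended constructs, followed by RT-PCR, closed a single triplicate in vitro selection round. That round began by annealing PCR-built, transcribed mutant libraries of each subunit of a heterodimeric triplet polymerase ribozyme with a biotinylated primer, the partner subunit and triplets, then incubating them frozen at −7 °C. After Illumina sequencing of inputs and outputs, genotypes needed ≥10 input reads and ≥1 read per output. Fitness is the base-2 logarithm of genotype enrichment over wild-type enrichment, using inverse-variance-weighted replicate averages.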

Variant	polymerase ribozyme fitness (log ratio)
A12U G58U G83A C93A	≤ -4.2
C18A A28G A30C G46A G74C	≤ -4.2
C79U U90A A137G	≤ -4.2
G59C C95A C99G	≤ -4.2
C87A G112C C116G	≤ -4.2
C5G U45G G86U C93G A97G	-3.16
G80C G83A A110U	≤ -4.2
C27U G50C C114G	≤ -4.2
A3C C36G A60C G83U C118G U151C	≤ -4.2
C96U U148G	-3.13
A52G C87U G141A U148A	≤ -4.2
G50A A110G	-3.88
A39U U45C C93U	≤ -4.2
G83A U104G A122U U134G	-3.23
G71A C85G C87U	≤ -4.2
U9G U145C	-3.95
A16G A26U C85A C105G C114U G141C U151C	≤ -4.2
A16U U44A G71C C96G A106U U127C G133U G141C U148C	≤ -4.2
A106U U135A	-2.14
A3G G94U C103U U127C U134C G136A	-3.9
A40U G94U G136C	-4.02
U82G A110G C125G A137U	≤ -4.2
A3U A20C G58C A73U G81A A147C	≤ -4.2
A21C U56G A89C C96A C116G A119C	-2.02

Variant	polymerase ribozyme fitness (log ratio)
G83C A121U	0.406
A22U A120G U144A	0.42
G59C U61G G84A C95G A120C G143U	-4.18
A41G G83C C99A	-2.03
A26U C96U	-1.62
C85G U102G C129U A150C	≤ -4.2
C87G G112U	≤ -4.2
C36U G94A	-3.52
C76A G94A	-0.598
C85G C118A U146C	-2.72
A40C G46A A91G U104G A119G U148G	≤ -4.2
G11U A52U	-2.33
U15A C57U C63A G68A C87U A122U	≤ -4.2
C36U G71A G94A	≤ -4.2
A24U G42C G84A C93U G94C C99A A122G	≤ -4.2
A89U C93G	-3.68
C8A C18U C35G C57U C76A G92U G117C U134A	≤ -4.2
C5A U78C A89U C95U	-1.72
A39C C54G C93A	≤ -4.2
U15C A22C C36A A106G G143A	≤ -4.2
C36A U45A C87G A91G	≤ -4.2
A47G G86U G88C U109G	≤ -4.2
C132G	-3.15
A3U C14U A40U A52U G84A G112C	≤ -4.2

Variant	polymerase ribozyme fitness (log ratio)
U7G G42C U61A C96U G112C G124C G126C G136A	≤ -4.2
G67U C93U	-3.74
G62C G83A	-2.25
A39G C105G	-3.19
C63A C87A A91G	≤ -4.2
A22U G48C C51U C116G G124A A150G	≤ -4.2
A17C C18A C57A C95U C99G A113G G133A G152U	-4.06
G34U G83U A115G U145G	≤ -4.2
U15C A20G A97G G140A	-3.64
A40U C114U G141C G152U	-3.44
G46C C114U	-3.67
U4G A23U U44G C51U C76G C96U U148C	≤ -4.2
A47U C51U A52C U53G U61A A64U C76U G83U U146C	≤ -4.2
A16G A23U C72A C87A C93U G126A	≤ -4.2
U31C G86U C96U	-0.694
G92U U146A	-0.393
U33G G50A A52C C76U C79U A107G U151A	≤ -4.2
U9C U56A C76A C108G G143U A150G	≤ -4.2
A19U C105G	-1.81
G100U U139G U146G	≤ -4.2
U33C C95U	-2.01
A21U U33G A49C G50C C54A U82G G92U	≤ -4.2
C10G A29C C54A U55G G88A G92U G124U	≤ -4.2
A39C U53G C85U	-4.06

Variant	polymerase ribozyme fitness (log ratio)
A21G C96G	0.474
C32A C38U G128C U135A	≤ -4.2
A16G U55A G83A G117U	-1.7
U56A G70A C85U A97G G133C	≤ -4.2
G59U C93A G133A A138U G141A	≤ -4.2
C14U G48A A64C U90C U102G C103G A115G A122G U127A A150C	≤ -4.2
A17U A22C A23G G25A G50C U55A C75A G80A C87U U90C C103A	≤ -4.2
C54U A121U	0.0158
U53A G84C C99A U111A	≤ -4.2
A30U G83U G88A U109C C125U G133C	≤ -4.2
C57A A89G C95U A119U A120U C125U	-1.54
C54U C149U	-0.259
G42C C76U C85U A89G U104C	≤ -4.2
U33A A49C C76U G80U C149G	≤ -4.2
G68A U139C	≤ -4.2
A19G G50A	-2.14
A17C U55A G59A A60G C96A G143U	-3.41
U4C A12G U31G G94C A121G	-0.0351
G59A C93U A98U A138C	≤ -4.2
C14G A40C U55A G81C G126A U139G G140A	≤ -4.2
A19U A20U C85U	-2.59
C51G C85U U144G	-1.3
A28G G42C C43A U55A	≤ -4.2
G70U C85U G88C U145C	≤ -4.2

Variant	polymerase ribozyme fitness (log ratio)
A66C A73G G80C C114A G141A	≤ -4.2
G50C C118U	-3.01
A97U G140U	-3.87
A39G C63G G70C C87U A91G C99A A120G	≤ -4.2
C63U C85U A113U U146A	-3.03
C14G G88C A137U	≤ -4.2
A49C U53A C54A C87U U102C	≤ -4.2
U33G G42A G58C A91G G100A	≤ -4.2
A60C U61C C76U A121G	≤ -4.2
A16U A98U A122G U146G	-3.26
A39G C57A C99G	-3.15
G70A C93U G141C	≤ -4.2
U9G C10A C18U A66U G81U C96U	≤ -4.2
C51G C87A	≤ -4.2
G11A C69U C87U G92C A150G	-2.89
C93U C99G	-1.97
C10G A41C A73U U134A	≤ -4.2
G48A C51U C54A U82G A120U	-3.66
A29U A41U C75U C123U G143U U145G	≤ -4.2
A40U A98G	-0.242
U78G C87G	≤ -4.2
G58A U135C	-1.39
A26U C93U	-2.67
A19U C96U	-0.369

Variant	polymerase ribozyme fitness (log ratio)
G25C C35U G74C C75A U148G	≤ -4.2
G46U G88U	≤ -4.2
A22U C32A G42A G48A A52G U148A	≤ -4.2
A17G C72U G88U U102C C105G	≤ -4.2
G50C C69A C75U	≤ -4.2
G80A G124A	0.289
A39G G88A A142U	≤ -4.2
A19C A37U G70U U144C	≤ -4.2
A41C C93U C105U	-1.68
A17U A20C C85U U102G C116G	-3.83
U56A A91U C125U C132U G140A U148A	≤ -4.2
U53G C118U	-1.68
U56G C79U U90A A107U C114G	≤ -4.2
U53A G83A C118A	-1.88
A22C U53G G94A A119G	-1.81
A30U G70A G143C	≤ -4.2
C85G G128C	≤ -4.2
A47C A91C G112C G133C C149U	≤ -4.2
A21C A66G	-3.91
A26C G117C	-2.51
G83C U101G A106U	-3.95
A138G	-1.9
G68C C93G C131A	≤ -4.2
U44C C96U C103G A115C	-4.19

Variant	polymerase ribozyme fitness (log ratio)
C18G A24U C76A C95U G141A	-3.98
G70A C96U	-2.89
A52G C114A	-3.48
G59A G124U C125G G136U U139A U146A	≤ -4.2
A49U G141A A147G	≤ -4.2
G25U G50U C54A A66U A91C	≤ -4.2
C14A A28U G46C U61A C95U U139C A150C	≤ -4.2
A19U U44A C95U C99G	≤ -4.2
A40C U53A	0.24
U6A A16C U56A U61A C95U C114U	-3.64
A60U G65C	-3.98
A40G G48U G58U C76A	≤ -4.2
U61A C96G G117A	-2.2
C38U G86A U148C	-3.22
A19G A26C U55G G83U U151C	≤ -4.2
U13C A21C	0.934
G59A A119U	-0.778
A26U G141U	-1.94
C5G G25C A28C C57G G58A C76G G143U	≤ -4.2
G58A G80U G84A G88A	≤ -4.2
C14G U82C	-3.65
A24G A26U U56A C87G C123A C132G G133U	≤ -4.2
C85U G141C	-0.765
